One may read the EC50 as the midpoint of the concentration-response curve. Read a low EC50 as a more potent agent. The IC50 is the midpoint of a concentration-inhibition curve. Read a low IC50 as greater potency in that assay.

We go through 3 substances from patent publication US12404607.

For assay [1], the target named is SARS-CoV-2 spike receptor binding domain (RBD) antigen (SARS-CoV-2) (UniProt P0DTC2). The assay is described as follows: ELISA, coated RBD.
In assay [2] the target is SARS-CoV-2 spike on GFP reporter pseudotype virus (Integral Molecular) (SARS-CoV-2) (UniProt P0DTC2). The assay is described as follows: cell-based or functional assay.
Assay [3] deals with SARS-CoV-2 spike S1 antigen (SARS-CoV-2) (UniProt P0DTC2). Description: ELISA, coated S1. On the technique in general: ELISA stands for enzyme-linked immunosorbent assay.
Assay [4] addresses SARS CoV-2 Spike RBD protein of the Spike:ACE2 blocking ELISA (BPS Bioscience) (SARS-CoV-2) (UniProt P0DTC2). The assay is described as follows: competition ELISA: RBD coated, test article, then ACE2-His (competitor).
In the next assay the target is SARS CoV RBD (SARS-CoV) (UniProt P59594). Description: ELISA, antigen coated at 2 ug/mL.

With “SARS CoV mAb [CR3022] (Absolute Antibody)”, the concentration giving a half-maximal response (EC50) stood at 0.088 µg/mL in assay [1] and 0.078 µg/mL in assay [3]. The substance further registered a CoV-2 pseudotype neutralization IC50 in assay [2] of 100 µg/mL.
As to “SARS CoV-2 mAb [SAD-S35] (Acro Biosystems) (antibody)”, the half-maximal effective concentration (EC50) in assay [1] stood at 0.057 µg/mL; in assay [3], 0.058 µg/mL. Further, the concentration for half-maximal inhibition (IC50) in assay [4] was 1.1 µg/mL. Besides, the CoV-2 pseudotype neutralization IC50 in assay [2] was 0.26 µg/mL.
On to “rCIG (recombinant coronavirus-2 immune globulin; recombinant anti-coronavirus 19 hyperimmune gammaglobulin)”, for which the EC50 worked out at 0.1 µg/mL in assay [1], 0.6 µg/mL with SARS CoV RBD (SARS-CoV) and 0.092 µg/mL in assay [3]. The substance also displayed a concentration for half-maximal inhibition (IC50) in assay [4] of 2.2 µg/mL. This substance returned a CoV-2 pseudotype neutralization IC50 in assay [2] of 0.43 µg/mL.
